Positions count from the first letter of the chain named. In names and notes the source's numbering stands. Several values for one entry are separate records, joined by “and”; a condition that tells them apart may be missing. Equal values may be shown once.
B1: KB001 mouse Fab VL T24A (Fab, V domains shown)
VH: EVQLKQSGPGLVAPSQSLSITCTVSGFSLSIYSVHWVRQPPGKGLEWLGMIWGGGSSDYNSALKSRLSISKDNSKSQVFLKMNSLQTDDTAMYYCARNGNFYAMDYWGQGTSVTVSS
VL: QIVLTQSPAIMSASLGERVTMTCAASSSVSSSFLHWYQQKPGSSPQLWIYSTSNLASGVPARFSGSGSGTSYSLTISSMEAEDAATYYCHQYHHSPYIYTFGGGTKLEIK
B2: KB001 mouse Fab VL T24Q (Fab, V domains shown)
VH: B1 VH
VL: B1 VL with A24Q
B3: KB001 mouse Fab VL T24N/G67D (Fab, V domains shown)
VH: B1 VH
VL: B1 VL with A24N, G67D
B4: KB001 mouse Fab VL T24G (Fab, V domains shown)
VH: B1 VH
VL: B1 VL with A24G
B5: KB001 mouse Fab VL T24N (Fab, V domains shown)
VH: B1 VH
VL: B1 VL with A24N
B6: KB001 mouse Fab VL A25Y (Fab, V domains shown)
VH: B1 VH
VL: B1 VL with A24T, A25Y
B7: KB001 mouse Fab VL A25G (Fab, V domains shown)
VH: B1 VH
VL: B1 VL with A24T, A25G
B8: KB001 mouse Fab VL A25P (Fab, V domains shown)
VH: B1 VH
VL: B1 VL with A24T, A25P
B9: KB001 mouse Fab VL A25V (Fab, V domains shown)
VH: B1 VH
VL: B1 VL with A24T, A25V
B10: KB001 mouse Fab VL A25E (Fab, V domains shown)
VH: B1 VH
VL: B1 VL with A24T, A25E
B11: KB001 mouse Fab VL S26G (Fab, V domains shown)
VH: B1 VH
VL: B1 VL with A24T, S26G
B12: KB001 mouse Fab VL S26P (Fab, V domains shown)
VH: B1 VH
VL: B1 VL with A24T, S26P
B13: KB001 mouse Fab VL S26T (Fab, V domains shown)
VH: B1 VH
VL: B1 VL with A24T, S26T
B14: KB001 mouse Fab VL S27H (Fab, V domains shown)
VH: B1 VH
VL: B1 VL with A24T, S27H
B15: KB001 mouse Fab VL S27N (Fab, V domains shown)
VH: B1 VH
VL: B1 VL with A24T, S27N
B16: KB001 mouse Fab VL S27Y (Fab, V domains shown)
VH: B1 VH
VL: B1 VL with A24T, S27Y
B17: KB001 mouse Fab VL S27L (Fab, V domains shown)
VH: B1 VH
VL: B1 VL with A24T, S27L
B18: KB001 mouse Fab VL S27V (Fab, V domains shown)
VH: B1 VH
VL: B1 VL with A24T, S27V
B19: KB001 mouse Fab VL S27W (Fab, V domains shown)
VH: B1 VH
VL: B1 VL with A24T, S27W
B20: KB001 mouse Fab VL S27K/S68Y (Fab, V domains shown)
VH: B1 VH
VL: B1 VL with A24T, S27K, S68Y
B21: KB001 mouse Fab VL S27M (Fab, V domains shown)
VH: B1 VH
VL: B1 VL with A24T, S27M
B22: KB001 mouse Fab VL S28M (Fab, V domains shown)
VH: B1 VH
VL: B1 VL with A24T, S28M
B23: KB001 mouse Fab VL S28T/S12R (Fab, V domains shown)
VH: B1 VH
VL: B1 VL with S12R, A24T, S28T
B24: KB001 mouse Fab VL S28H (Fab, V domains shown)
VH: B1 VH
VL: B1 VL with A24T, S28H
B25: KB001 mouse Fab VL S28N (Fab, V domains shown)
VH: B1 VH
VL: B1 VL with A24T, S28N
B26: KB001 mouse Fab VL S28D (Fab, V domains shown)
VH: B1 VH
VL: B1 VL with A24T, S28D
B27: KB001 mouse Fab VL V29I (Fab, V domains shown)
VH: B1 VH
VL: B1 VL with A24T, V29I
B28: KB001 mouse Fab VL V29L (Fab, V domains shown)
VH: B1 VH
VL: B1 VL with A24T, V29L
B29: KB001 mouse Fab VL S30H (Fab, V domains shown)
VH: B1 VH
VL: B1 VL with A24T, S30H
B30: KB001 mouse Fab VL S30R (Fab, V domains shown)
VH: B1 VH
VL: B1 VL with A24T, S30R
B31: KB001 mouse Fab VL S30T (Fab, V domains shown)
VH: B1 VH
VL: B1 VL with A24T, S30T
B32: KB001 mouse Fab VL S30E (Fab, V domains shown)
VH: B1 VH
VL: B1 VL with A24T, S30E
B33: KB001 mouse Fab VL S30D (Fab, V domains shown)
VH: B1 VH
VL: B1 VL with A24T, S30D
B34: KB001 mouse Fab VL S30W (Fab, V domains shown)
VH: B1 VH
VL: B1 VL with A24T, S30W
B35: KB001 mouse Fab VL S30L (Fab, V domains shown)
VH: B1 VH
VL: B1 VL with A24T, S30L
B36: KB001 mouse Fab VL S30I (Fab, V domains shown)
VH: B1 VH
VL: B1 VL with A24T, S30I
B37: KB001 mouse Fab VL S30M (Fab, V domains shown)
VH: B1 VH
VL: B1 VL with A24T, S30M
B38: KB001 mouse Fab VL S30K (Fab, V domains shown)
VH: B1 VH
VL: B1 VL with A24T, S30K
B39: KB001 mouse Fab VL S31Q (Fab, V domains shown)
VH: B1 VH
VL: B1 VL with A24T, S31Q
B40: KB001 mouse Fab VL S31W (Fab, V domains shown)
VH: B1 VH
VL: B1 VL with A24T, S31W
B41: KB001 mouse Fab VL S31D (Fab, V domains shown)
VH: B1 VH
VL: B1 VL with A24T, S31D
B42: KB001 mouse Fab VL S32A (Fab, V domains shown)
VH: B1 VH
VL: B1 VL with A24T, S32A

Target: HRgpA-6H (Porphyromonas gingivalis) (UniProt P28784)
UniProt P28784, sequence (P28784 228-991): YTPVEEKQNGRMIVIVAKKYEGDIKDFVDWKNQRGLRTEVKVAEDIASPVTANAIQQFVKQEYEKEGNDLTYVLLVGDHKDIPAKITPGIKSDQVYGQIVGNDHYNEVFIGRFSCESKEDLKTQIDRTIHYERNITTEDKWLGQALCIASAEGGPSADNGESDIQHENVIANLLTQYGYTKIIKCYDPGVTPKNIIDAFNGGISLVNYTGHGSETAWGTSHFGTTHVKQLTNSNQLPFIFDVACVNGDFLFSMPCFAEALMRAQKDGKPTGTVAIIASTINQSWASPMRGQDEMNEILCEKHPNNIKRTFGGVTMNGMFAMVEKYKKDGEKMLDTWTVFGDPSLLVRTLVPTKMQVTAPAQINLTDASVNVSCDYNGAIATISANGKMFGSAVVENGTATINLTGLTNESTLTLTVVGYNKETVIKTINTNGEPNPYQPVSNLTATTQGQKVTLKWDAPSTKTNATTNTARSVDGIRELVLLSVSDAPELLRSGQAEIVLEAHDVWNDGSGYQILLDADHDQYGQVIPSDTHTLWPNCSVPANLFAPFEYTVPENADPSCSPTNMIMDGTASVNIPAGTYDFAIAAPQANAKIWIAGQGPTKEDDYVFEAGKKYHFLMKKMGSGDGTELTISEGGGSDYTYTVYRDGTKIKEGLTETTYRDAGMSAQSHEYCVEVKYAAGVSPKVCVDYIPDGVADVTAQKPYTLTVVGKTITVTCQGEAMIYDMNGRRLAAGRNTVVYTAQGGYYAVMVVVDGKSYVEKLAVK
Assay: ELISA, FASEBA Fab on coated HRgpA-6H

Row | Binder | OD450nm | Ratio OD(Variant)/OD(WT)
1 | B1 | 0.757 | 0.984
2 | B2 | 0.765 | 0.995
3 | B3 | 0.755 | 0.982
4 | B4 | 0.686 and 0.735 | 0.892 and 0.956
5 | B5 | 0.715 and 0.8 | 0.93 and 1.04
6 | B6 | 0.755 and 0.757 | 0.964 and 0.967
7 | B7 | 0.668 and 0.699 and 0.673 | 0.853 and 0.893 and 0.86
8 | B8 | 0.742 and 0.766 and 0.749 | 0.948 and 0.978 and 0.957
9 | B9 | 0.768 | 0.981
10 | B10 | 0.655 | 0.837
11 | B11 | 0.73 | 0.932
12 | B12 | 0.644 and 0.677 | 0.822 and 0.865
13 | B13 | 0.761 | 0.972
14 | B14 | 0.664 and 0.63 and 0.726 | 0.885 and 0.839 and 0.967
15 | B15 | 0.675 and 0.724 and 0.64 | 0.899 and 0.965 and 0.853
16 | B16 | 0.617 | 0.822
17 | B17 | 0.649 | 0.865
18 | B18 | 0.645 and 0.646 | 0.859 and 0.861
19 | B19 | 0.601 | 0.801
20 | B20 | 0.736 | 0.981
21 | B21 | 0.709 | 0.945

Row | Binder | OD450nm | Ratio OD(Variant)/OD(WT)
22 | B22 | 0.706 and 0.675 | 0.941 and 0.899
23 | B23 | 0.747 | 0.995
24 | B24 | 0.719 | 0.958
25 | B25 | 0.743 | 0.99
26 | B26 | 0.745 and 0.722 | 0.993 and 0.962
27 | B27 | 0.853 | 0.99
28 | B28 | 0.751 | 0.871
29 | B29 | 0.808 and 0.747 | 0.937 and 0.867
30 | B30 | 0.778 and 0.793 and 0.802 | 0.903 and 0.92 and 0.93
31 | B31 | 0.838 and 0.817 | 0.972 and 0.948
32 | B32 | 0.813 | 0.943
33 | B33 | 0.702 and 0.723 | 0.814 and 0.839
34 | B34 | 0.823 | 0.955
35 | B35 | 0.813 | 0.943
36 | B36 | 0.86 | 0.998
37 | B37 | 0.818 | 0.949
38 | B38 | 0.77 | 0.893
39 | B39 | 0.83 and 0.745 and 0.782 | 0.982 and 0.882 and 0.925
40 | B40 | 0.808 | 0.956
41 | B41 | 0.762 | 0.902
42 | B42 | 0.748 and 0.805 | 0.885 and 0.953
